In the supplement of paper PMC7125110:
± gives the standard error. For part of these data: Fewer inactive variants are shown than the library holds.

B1: glmS ribozyme (parent)
chain: AUAAAAGCGCCAGAACUACAGAAAUGUAGUUGACGAGGAGGAGGUUUAUCGAAUUUUCGGCGGAUGCCUCCAAA

Tests used:
Settings in all cases: with glucosamine-6-phosphate
[1] = variants of: B1; test: kcat; higher = faster cleavage; RNA array
In short: (§1)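 Tiles bearing barcoded ribozyme variants, transcribed in situ by E. coli RNA polymerase on sequenced MiSeq chips, were imaged over ~14 h at 37 °C using a hybridised Cy3 probe. Glucosamine-6-phosphate was supplied at 40 μM to 10 mM in HEPES/KCl/Mg(OAc)2 buffer. kobs came from one- or two-exponential decay fits to normalised per-tile medians, and weighted Michaelis–Menten fits then provided kcat and KM.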

[2] = variants of: B1; test: self-cleavage kobs at 160 uM GlcN6P; higher = faster cleavage; RNA array
In short: as §1

[3] = variants of: B1; test: self-cleavage kobs at 640 uM GlcN6P; higher = faster cleavage; RNA array
In short: as §1

[4] = variants of: B1; test: self-cleavage kobs at 2500 uM GlcN6P; higher = faster cleavage; RNA array
In short: as §1

[5] = variants of: B1; test: KM; higher = weaker cofactor use; RNA array
In short: as §1

[6] = variants of: B1; test: self-cleavage kobs at 10000 uM GlcN6P; higher = faster cleavage; RNA array
In short: as §1

[7] = variants of: B1; test: self-cleavage kobs at 40 uM GlcN6P; higher = faster cleavage; RNA array
In short: as §1

U57G C70A
kcat [1]: 4.31e-05 ± 1.5e-05 s⁻¹ | self-cleavage kobs at 160 uM GlcN6P [2]: 3.33e-05 ± 1.3e-05 s⁻¹ | self-cleavage kobs at 640 uM GlcN6P [3]: 4.1e-05 ± 1.7e-05 s⁻¹ | self-cleavage kobs at 2500 uM GlcN6P [4]: 6.82e-05 ± 1.9e-05 s⁻¹

U57G U69A
kcat [1]: 3.67e-05 ± 1.4e-05 s⁻¹ | self-cleavage kobs at 640 uM GlcN6P [3]: 5.54e-05 ± 2.1e-05 s⁻¹

U56C G66U
kcat [1]: 0.000242 ± 4e-05 s⁻¹ | KM [5]: 1500 ± 650 µM | self-cleavage kobs at 640 uM GlcN6P [3]: 8.87e-05 ± 2e-05 s⁻¹ | self-cleavage kobs at 2500 uM GlcN6P [4]: 0.000133 ± 2e-05 s⁻¹ | self-cleavage kobs at 10000 uM GlcN6P [6]: 0.000231 ± 3.4e-05 s⁻¹

A64G U65A
kcat [1]: 0.00547 ± 0.00084 s⁻¹ | KM [5]: 1850 ± 410 µM | self-cleavage kobs at 40 uM GlcN6P [7]: 0.000129 ± 2.2e-05 s⁻¹ | self-cleavage kobs at 160 uM GlcN6P [2]: 0.000381 ± 7.6e-05 s⁻¹ | self-cleavage kobs at 640 uM GlcN6P [3]: 0.00133 ± 0.00024 s⁻¹ | self-cleavage kobs at 2500 uM GlcN6P [4]: 0.00387 ± 0.00065 s⁻¹ | self-cleavage kobs at 10000 uM GlcN6P [6]: 0.00429 ± 0.00072 s⁻¹

U55G A64G
kcat [1]: 0.0303 ± 0.0073 s⁻¹ | KM [5]: 1980 ± 600 µM | self-cleavage kobs at 40 uM GlcN6P [7]: 0.000723 ± 0.00013 s⁻¹ | self-cleavage kobs at 160 uM GlcN6P [2]: 0.00204 ± 0.00033 s⁻¹ | self-cleavage kobs at 640 uM GlcN6P [3]: 0.0075 ± 0.00091 s⁻¹ | self-cleavage kobs at 2500 uM GlcN6P [4]: 0.0149 ± 0.0036 s⁻¹ | self-cleavage kobs at 10000 uM GlcN6P [6]: 0.0308 ± 0.0088 s⁻¹

G63C C70U
kcat [1]: < 1e-05 s⁻¹ | self-cleavage kobs at 40 uM GlcN6P [7]: < 1e-05 s⁻¹ | self-cleavage kobs at 2500 uM GlcN6P [4]: < 1e-05 s⁻¹

G63C C70A
kcat [1]: 1.89e-05 ± 5.1e-06 s⁻¹

G66C C68U C71G
kcat [1]: < 1e-05 s⁻¹ | self-cleavage kobs at 160 uM GlcN6P [2]: < 1e-05 s⁻¹

A64C C71U
kcat [1]: 0.00012 ± 8.4e-06 s⁻¹ | KM [5]: 2400 ± 500 µM | self-cleavage kobs at 2500 uM GlcN6P [4]: 6.58e-05 ± 1.3e-05 s⁻¹ | self-cleavage kobs at 10000 uM GlcN6P [6]: 9.59e-05 ± 1.1e-05 s⁻¹

U56G A64U
kcat [1]: 9.52e-05 ± 2.5e-05 s⁻¹ | self-cleavage kobs at 160 uM GlcN6P [2]: < 1e-05 s⁻¹ | self-cleavage kobs at 2500 uM GlcN6P [4]: 3.01e-05 ± 1.5e-05 s⁻¹ | self-cleavage kobs at 10000 uM GlcN6P [6]: 6.57e-05 ± 1.9e-05 s⁻¹

U57C C67A
kcat [1]: 3.95e-05 ± 1.7e-06 s⁻¹ | KM [5]: 157 ± 71 µM | self-cleavage kobs at 640 uM GlcN6P [3]: 3.33e-05 ± 1.5e-05 s⁻¹ | self-cleavage kobs at 2500 uM GlcN6P [4]: 3.6e-05 ± 1.1e-05 s⁻¹ | self-cleavage kobs at 10000 uM GlcN6P [6]: 3.97e-05 ± 1.2e-05 s⁻¹

G60A C67G
kcat [1]: 1.56e-05 ± 2e-06 s⁻¹

C61G G62U C68G
kcat [1]: 1.21e-05 ± 3.9e-06 s⁻¹

U55G G66C
kcat [1]: 0.000625 ± 0.00013 s⁻¹ | self-cleavage kobs at 640 uM GlcN6P [3]: 0.000216 ± 4.5e-05 s⁻¹ | self-cleavage kobs at 2500 uM GlcN6P [4]: 0.000325 ± 7e-05 s⁻¹ | self-cleavage kobs at 10000 uM GlcN6P [6]: 0.000624 ± 0.0001 s⁻¹

U57G C68U
kcat [1]: 3.41e-05 ± 1.5e-05 s⁻¹ | self-cleavage kobs at 40 uM GlcN6P [7]: < 1e-05 s⁻¹ | self-cleavage kobs at 640 uM GlcN6P [3]: 3.46e-05 ± 1.4e-05 s⁻¹ | self-cleavage kobs at 2500 uM GlcN6P [4]: 6.22e-05 ± 1.2e-05 s⁻¹ | self-cleavage kobs at 10000 uM GlcN6P [6]: 1.92e-05 ± 8.6e-06 s⁻¹

C58A G66U
kcat [1]: 5.19e-05 ± 5.8e-06 s⁻¹ | self-cleavage kobs at 10000 uM GlcN6P [6]: 4.3e-05 ± 5.6e-06 s⁻¹

C61U A64G
kcat [1]: 2.3e-05 ± 9.4e-07 s⁻¹ | KM [5]: 1200 ± 250 µM | self-cleavage kobs at 40 uM GlcN6P [7]: < 1e-05 s⁻¹ | self-cleavage kobs at 160 uM GlcN6P [2]: < 1e-05 s⁻¹

C61U G63C
kcat [1]: < 1e-05 s⁻¹ | self-cleavage kobs at 2500 uM GlcN6P [4]: < 1e-05 s⁻¹

U56A C61G
kcat [1]: < 1e-05 s⁻¹

G59C C67G
kcat [1]: < 1e-05 s⁻¹

U57A U69C
kcat [1]: 0.000113 ± 1.4e-05 s⁻¹ | KM [5]: 1640 ± 640 µM | self-cleavage kobs at 2500 uM GlcN6P [4]: 7.81e-05 ± 1.8e-05 s⁻¹ | self-cleavage kobs at 10000 uM GlcN6P [6]: 9.38e-05 ± 1.8e-05 s⁻¹
